# Reference: publication PMC4140661
# Molecular target: Pea2p-L409-ProA (pea2-M409L; S288C-encoded Pea2p variant in the Σ1278b background) (S. cerevisiae (S288C allele recreated in strain Σ1278b)) (UniProt P40091)
# Assay: co-IP; IgG pull-down with Pea2p-ProA as bait from lysates of Σ1278b cells; HA-Spa2p from a copper-inducible plasmid; lysis buffer 50 mM Tris-HCl pH 7.5, 150 mM NaCl, 2 mM EDTA, 0.5% Triton X-100; 2 hr at 4°C; Western blot (anti-HA, anti-Protein A); levels normalized against total cell lysate
# UniProt P40091, sequence (P40091 whole entry, stated change not applied): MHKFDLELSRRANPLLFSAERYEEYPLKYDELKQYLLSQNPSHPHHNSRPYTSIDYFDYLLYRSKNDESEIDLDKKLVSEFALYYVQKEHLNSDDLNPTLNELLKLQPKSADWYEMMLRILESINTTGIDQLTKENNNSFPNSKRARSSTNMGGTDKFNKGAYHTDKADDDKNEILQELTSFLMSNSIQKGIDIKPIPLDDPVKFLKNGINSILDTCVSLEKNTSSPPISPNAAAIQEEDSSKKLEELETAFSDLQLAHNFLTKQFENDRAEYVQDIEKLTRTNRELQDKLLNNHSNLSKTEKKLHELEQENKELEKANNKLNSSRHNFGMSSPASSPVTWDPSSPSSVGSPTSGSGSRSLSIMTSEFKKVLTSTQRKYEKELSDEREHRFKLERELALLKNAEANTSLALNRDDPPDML
# HA-Spa2p, sequence (P23201 whole entry): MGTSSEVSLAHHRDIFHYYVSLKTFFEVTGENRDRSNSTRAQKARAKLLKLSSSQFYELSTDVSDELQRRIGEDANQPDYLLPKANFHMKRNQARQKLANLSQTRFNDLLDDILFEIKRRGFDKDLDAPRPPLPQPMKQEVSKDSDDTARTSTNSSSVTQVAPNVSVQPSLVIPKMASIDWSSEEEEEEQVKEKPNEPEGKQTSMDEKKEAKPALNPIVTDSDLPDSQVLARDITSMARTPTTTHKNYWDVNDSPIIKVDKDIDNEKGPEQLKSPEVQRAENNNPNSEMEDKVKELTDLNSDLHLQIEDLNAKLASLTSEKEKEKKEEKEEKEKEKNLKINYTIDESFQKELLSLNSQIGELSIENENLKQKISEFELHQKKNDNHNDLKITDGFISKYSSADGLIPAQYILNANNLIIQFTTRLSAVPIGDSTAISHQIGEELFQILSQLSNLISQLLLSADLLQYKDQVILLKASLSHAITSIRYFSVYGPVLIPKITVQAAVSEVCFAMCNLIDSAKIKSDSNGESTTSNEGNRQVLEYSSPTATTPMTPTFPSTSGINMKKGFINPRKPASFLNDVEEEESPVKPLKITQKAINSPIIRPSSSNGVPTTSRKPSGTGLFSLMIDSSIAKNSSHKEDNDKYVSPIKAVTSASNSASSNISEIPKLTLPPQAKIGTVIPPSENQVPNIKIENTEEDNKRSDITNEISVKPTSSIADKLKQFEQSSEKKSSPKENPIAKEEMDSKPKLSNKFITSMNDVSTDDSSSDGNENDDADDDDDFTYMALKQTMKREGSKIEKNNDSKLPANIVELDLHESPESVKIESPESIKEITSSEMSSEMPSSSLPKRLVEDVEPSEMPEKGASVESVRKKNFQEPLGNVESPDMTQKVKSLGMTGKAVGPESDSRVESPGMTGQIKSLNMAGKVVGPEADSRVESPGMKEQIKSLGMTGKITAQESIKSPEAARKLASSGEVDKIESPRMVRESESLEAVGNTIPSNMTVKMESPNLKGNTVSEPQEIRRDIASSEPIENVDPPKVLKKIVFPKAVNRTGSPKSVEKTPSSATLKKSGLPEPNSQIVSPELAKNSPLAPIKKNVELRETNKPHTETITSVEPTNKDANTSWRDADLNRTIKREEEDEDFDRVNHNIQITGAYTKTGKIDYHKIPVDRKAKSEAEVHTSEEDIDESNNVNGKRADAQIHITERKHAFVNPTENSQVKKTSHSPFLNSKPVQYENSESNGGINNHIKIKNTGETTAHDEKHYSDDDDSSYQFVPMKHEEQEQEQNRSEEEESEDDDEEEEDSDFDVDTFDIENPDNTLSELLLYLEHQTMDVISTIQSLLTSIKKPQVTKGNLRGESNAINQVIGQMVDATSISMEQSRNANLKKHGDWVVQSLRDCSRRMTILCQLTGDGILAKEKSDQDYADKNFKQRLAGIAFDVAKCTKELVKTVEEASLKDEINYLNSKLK
substance,measurement,value
HA-Spa2p (from UniProt P23201 1-1466) (natural protein),amount of Spa2p recovered relative to Pea2p-M409,60%
